Reference: publication PMC11733250, “Interplay of p23 with FKBP51 and their chaperone complex in regulating tau aggregation” (Nature Communications, 2025)

B3: FKBP51 (natural protein, UniProt Q13451 1-457, looked up)
chain: MTTDEGAKNNEESPTATVAEQGEDITSKKDRGVLKIVKRVGNGEETPMIGDKVYVHYKGKLSNGKKFDSSHDRNEPFVFSLGKGQVIKAWDIGVATMKKGEICHLLCKPEYAYGSAGSLPKIPSNATLFFEIELLDFKGEDLFEDGGIIRRTKRKGEGYSNPNEGATVEIHLEGRCGGRMFDCRDVAFTVGEGEDHDIPIGIDKALEKMQREEQCILYLGPRYGFGEAGKPKFGIEPNAELIYEVTLKSFEKAKESWEMDTKEKLEQAAIVKEKGTVYFKGGKYMQAVIQYGKIVSWLEMEYGLSEKESKASESFLLAAFLNLAMCYLKLREYTKAVECCDKALGLDSANEKGLYRRGEAQLLMNEFESAKGDFEKVLEVNPQNKAARLQISMCQKKAKEHNERDRRIYANMFKKFAEQDAKEEANKAMGKKTSEGVTNEKGTDSQAMEEEKPEGHV
notes: FKBP51, 51 kDa, with the FK1, FK2 and TPR domains; all three domains and residues 426-457 are spoken of, which fits the whole 457-residue protein; Used unlabeled or with 13C-methyl (Leu, Val) labels; also called free FKBP51; LV-labeled FKBP51; source: grown in LB or M9 medium, IPTG-induced; purified (His-trap, HRV 3C cut of the His-tag, size exclusion chromatography)

Experiments:
Details in all cases: both partners purified
[1] = target: T1, 441-residue human 2N4R tau (human, UniProt P10636-8 1-441); experiment: NMR titration; 1H-15N HSQC of 15N-labeled tau (20 or 30 µM); unlabeled p23 or p23 (1-119) added up to ten-fold molar excess; 50 mM NaP, 10 mM NaCl, 1 mM DTT, pH 6.8, 278 K
T1 construct: tau, human, 2N4R isoform, printed length 441 residues; Used unlabeled or 15N-labeled; source: grown in LB or M9 medium, IPTG-induced; purified (boiling, ammonium sulfate, Mono S ion exchange, reverse phase HPLC), lyophilized
T1 sequence (P10636 other isoform, or with tags, fused parts or gaps): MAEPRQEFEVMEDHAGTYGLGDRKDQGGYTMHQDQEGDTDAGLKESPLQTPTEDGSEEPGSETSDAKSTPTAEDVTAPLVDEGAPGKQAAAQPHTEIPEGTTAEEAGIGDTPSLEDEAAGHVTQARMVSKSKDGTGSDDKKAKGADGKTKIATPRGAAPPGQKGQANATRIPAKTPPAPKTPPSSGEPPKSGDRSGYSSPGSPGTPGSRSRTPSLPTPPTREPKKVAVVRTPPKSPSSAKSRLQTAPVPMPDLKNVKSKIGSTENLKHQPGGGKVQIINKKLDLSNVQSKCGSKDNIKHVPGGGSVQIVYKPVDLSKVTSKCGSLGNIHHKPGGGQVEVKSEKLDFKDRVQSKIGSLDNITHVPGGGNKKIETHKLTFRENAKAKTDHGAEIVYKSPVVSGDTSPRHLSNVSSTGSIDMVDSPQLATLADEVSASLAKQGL

FKBP51 = target: B3; experiment: NMR titration; 1H-15N TROSY HSQC of deuterated 15N-labeled p23 (WT 40 µM, 1-119 25 µM, R88A R93A 40 µM); unlabeled FKBP51 added at equimolar to three-fold or five-fold molar excess; 25 mM HEPES, 10 mM KCl, 5 mM MgCl2, 1 mM DTT, pH 7.2, 303 K
[2] = target: T1, 441-residue human 2N4R tau; experiment: cross-linking; p23:FKBP51:tau 1:1:1 (25 µM each), 1 mM DSS, 30 min at 25 °C; SDS-PAGE band above 220 kDa cut out, trypsin digest, mass spectrometry (pLink)

B1: p23 wild-type (human co-chaperone p23, 160 amino acids) (natural protein, UniProt Q15185 1-160, looked up)
chain: MQPASAKWYDRRDYVFIEFCVEDSKDVNVNFEKSKLTFSCLGGSDNFKHLNEIDLFHCIDPNDSKHKRTDRSILCCLRKGESGQSWPRLTKERAKLNWLSVDFNNWKDWEDDSDEDMSNFDRFSEMMNNMGGDEDVDLPEVDGADDDSQDSDDEKMPDLE
notes: p23, human, 160 amino acids: folded domain (residues 1-110) and disordered C-terminal tail (residues 111-160); Used unlabeled, 15N-labeled or deuterated/15N-labeled; also called p23 WT; full-length p23; source: grown in LB or M9 medium, IPTG-induced; purified (His-trap, thrombin cut of the His-tag, size exclusion chromatography)
binding result [1]: binds

B2: truncated p23 (1-119) (domain or fragment, human, UniProt Q15185 1-119, looked up)
chain: MQPASAKWYDRRDYVFIEFCVEDSKDVNVNFEKSKLTFSCLGGSDNFKHLNEIDLFHCIDPNDSKHKRTDRSILCCLRKGESGQSWPRLTKERAKLNWLSVDFNNWKDWEDDSDEDMSN
notes: p23, human, residues 1-119; the terminal 41 residues are deleted; Made by site-directed mutagenesis; also called truncated (1–119) mutant p23; C-terminal deletion mutant of p23; source: grown in LB or M9 medium, IPTG-induced; purified (His-trap, thrombin cut of the His-tag, size exclusion chromatography)
binding result (FKBP51): binds

B3
binding result [2]: binds
